Where “and” joins values, the source holds several entries; their conditions need not be identical. Equal entries are not always repeated.
Biological target: Bacteriophage P22 small terminase subunit gp3 (S-terminase), full length (bacteriophage P22)
Test: native MS; co-purified S:L-terminase complex (peak 2) exchanged into 150 mM ammonium acetate pH 8.0, 2 uM, nanoflow electrospray capillary; modified QTOF-2 and Exactive Plus EMR Orbitrap

Bacteriophage P22 small terminase subunit gp3 (S-terminase), full length (bacteriophage P22), sequence (P04893 whole entry): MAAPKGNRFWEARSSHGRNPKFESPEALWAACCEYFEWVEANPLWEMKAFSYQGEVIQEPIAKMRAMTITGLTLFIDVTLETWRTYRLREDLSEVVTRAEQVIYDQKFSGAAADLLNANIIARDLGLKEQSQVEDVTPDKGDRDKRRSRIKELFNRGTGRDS

| Substance | stoichiometry N (gp2 per 1 (gp3)9) | stoichiometry N (gp2 per 2 (gp3)9) | stoichiometry N (gp2 per 3 (gp3)9) | stoichiometry N |
| --- | --- | --- | --- | --- |
| Bacteriophage P22 large terminase subunit gp2 (L-terminase), full length (enzyme) | 1 and 2 | 5 | 7 | – |
| Bacteriophage P22 small terminase subunit gp3 (S-terminase), full length (natural protein) | – | – | – | 9 |

From paper PMC11728703
